# B1: 全人源抗H7N9病毒的单克隆中和抗体mAb635 (antibody, V domains shown)
# VH: TGVHSQVQLVQSGAEVKKPGASVKISCKASGYSFTNYTLHWVRQAPGQRLEWMGWINAGNGNTRYSQKFQARVTITRDTSASTGYMEVSSLRSEDTAVYYCARGAYYGFWNGHYMGDDDNYYYGMGVWGQGPRSPSPQRR
# VL: TGSLSQPVLTQPPSVSVSPGQTASITCSGDKLGDKYACWYQQKPGQSPVQVIYQDTKRPSGIPERFSGSNSGDTATLTISGTQSVDEADYYCQAWDSSRDVVFGGGTKLTVLGQPKAAPSVTLFPTLE
# Tests used:
# Experiment in all cases: cell-based or functional assay
# [1] = biological target: H7N9病毒Nanjing-06病毒株 (H7N9病毒)
# [2] = biological target: H7N9病毒Suzhou-03病毒株 (H7N9病毒)
# [3] = biological target: H7N9病毒Wuxi-01病毒株 (H7N9病毒)
# [4] = biological target: H7N9病毒Wuxi-02病毒株 (H7N9病毒)
binder,measurement,setting,value
B1,中和100×TCID50病毒需要的抗体量,[1],80 ng
same,中和100×TCID50病毒需要的抗体量,[2],80 ng
same,中和100×TCID50病毒需要的抗体量,[3],160 ng
same,中和100×TCID50病毒需要的抗体量,[4],320 ng

# — CN106892979A
